In US20110305629A1 (published 2011) one finds EC50 data, which are given here for two molecules.

The target of the assay is T1, soluble αvβ6 (UniProt P06756 31-992; P18564 22-709, Biotinylated in the blocking ELISA of FIG. 7; the biotin sites are not stated.).
T1 alpha: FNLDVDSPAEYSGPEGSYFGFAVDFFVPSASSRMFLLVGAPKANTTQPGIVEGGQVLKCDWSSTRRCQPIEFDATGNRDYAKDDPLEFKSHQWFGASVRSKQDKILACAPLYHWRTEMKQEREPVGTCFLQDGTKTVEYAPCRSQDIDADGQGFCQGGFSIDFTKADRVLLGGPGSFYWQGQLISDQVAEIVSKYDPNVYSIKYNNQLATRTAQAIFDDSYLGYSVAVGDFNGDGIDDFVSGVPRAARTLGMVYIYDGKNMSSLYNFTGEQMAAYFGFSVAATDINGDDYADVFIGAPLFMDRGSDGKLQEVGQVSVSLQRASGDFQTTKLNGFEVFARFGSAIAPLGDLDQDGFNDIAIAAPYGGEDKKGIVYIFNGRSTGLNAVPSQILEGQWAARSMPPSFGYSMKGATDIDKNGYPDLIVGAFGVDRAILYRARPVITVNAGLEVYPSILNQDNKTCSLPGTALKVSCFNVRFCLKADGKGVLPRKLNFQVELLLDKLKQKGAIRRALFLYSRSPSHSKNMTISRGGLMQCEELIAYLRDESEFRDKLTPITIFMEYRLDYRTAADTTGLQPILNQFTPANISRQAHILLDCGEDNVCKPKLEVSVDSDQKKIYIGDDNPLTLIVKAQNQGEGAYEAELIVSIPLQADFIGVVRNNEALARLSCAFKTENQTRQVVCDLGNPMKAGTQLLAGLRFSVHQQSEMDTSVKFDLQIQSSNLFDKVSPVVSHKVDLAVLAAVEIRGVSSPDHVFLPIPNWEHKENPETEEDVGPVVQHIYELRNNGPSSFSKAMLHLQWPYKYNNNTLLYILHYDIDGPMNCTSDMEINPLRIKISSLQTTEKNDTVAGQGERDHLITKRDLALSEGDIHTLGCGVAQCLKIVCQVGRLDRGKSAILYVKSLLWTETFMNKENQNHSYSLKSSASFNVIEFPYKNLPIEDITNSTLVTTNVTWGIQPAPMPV
T1 beta: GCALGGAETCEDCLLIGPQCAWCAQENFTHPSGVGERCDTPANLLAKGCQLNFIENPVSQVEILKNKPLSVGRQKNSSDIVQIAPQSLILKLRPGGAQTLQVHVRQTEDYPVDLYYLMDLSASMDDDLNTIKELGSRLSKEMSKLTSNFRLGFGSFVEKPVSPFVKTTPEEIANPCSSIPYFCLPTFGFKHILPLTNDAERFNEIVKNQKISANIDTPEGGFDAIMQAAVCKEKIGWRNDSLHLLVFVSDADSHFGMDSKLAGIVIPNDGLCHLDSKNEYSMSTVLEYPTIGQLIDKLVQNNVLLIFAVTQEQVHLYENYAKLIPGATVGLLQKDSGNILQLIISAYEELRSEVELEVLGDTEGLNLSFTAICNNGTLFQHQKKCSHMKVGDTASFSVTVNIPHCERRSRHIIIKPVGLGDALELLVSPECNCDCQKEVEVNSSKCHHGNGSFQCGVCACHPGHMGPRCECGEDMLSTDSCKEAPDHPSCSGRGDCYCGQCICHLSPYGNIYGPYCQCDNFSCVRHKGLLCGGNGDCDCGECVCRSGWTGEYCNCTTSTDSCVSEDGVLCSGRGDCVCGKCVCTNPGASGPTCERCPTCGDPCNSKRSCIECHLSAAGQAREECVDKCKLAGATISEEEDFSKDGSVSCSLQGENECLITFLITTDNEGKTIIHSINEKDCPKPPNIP
Kind of assay: binding ELISA.

B1: chimeric 3G9 antibody (ch3G9) (antibody, V domains shown)
VH: EVMLVESGGGLVQPGGSLRLSCAASGFTFSRYVMSWVRQAPGKGLEWVASISSGGRMYYPDTVKGRFTISRDSAKNSLYLQMNSLRAEDTAVYYCARGSIYDGYYVFPYWGQGTLVTVSS
VL: DIVLTQSPATLSLSPGERATLSCRASQSVSTSSYSYMYWYQQKPGQAPRFLIKYASNLESGIPARFSGSGSGTDFTLTISSLEPEDFAVYYCQHNWEIPFTFGGGTKVEIK
For B1, a half-maximal effect (EC50) was put at 0.036 µg/mL.

B2: chimeric 3G9 antibody containing a N to S substitution within the N-linked glycosylation site in the first CDR of the light chain (ch3G9S) (antibody, V domains shown)
VH: B1 VH
VL: B1 VL
On to B2, for which the EC50 was determined as 0.043 µg/mL.

As a reminder, the EC50 is the concentration that produces a half-maximal response.
